From paper PMC4401734, “The Crystal Structure of D-Threonine Aldolase from Alcaligenes xylosoxidans Provides Insight into a Metal Ion Assisted PLP-Dependent Mechanism” (PLoS ONE, 2015)

What was measured:
[1] = target: D-threonine aldolase from Alcaligenes xylosoxidans (Alcaligenes xylosoxidans IFO 12669); assay: crystal structure; X-ray, 1.5 Å, space group P2(1), two molecules per asymmetric unit; crystals from 200 mM sodium chloride, 100 mM Tris/HCl pH 8.1, 13% (w/v) PEG-3350
[2] = target: T1, AxDTA; D-threonine aldolase from Alcaligenes xylosoxidans (Achromobacter xylosoxidans, UniProt A0A0J9X243); assay: X-ray crystallography, […] Å; type: binding; details: active site; two alternate conformations: covalent (internal aldimine with Lys59, ~40% occupancy) and non-covalent (~60%); Mn2+ nearby; crystals at pH 8.1
T1 construct: full-length, residues 1-379, cloned from genomic DNA into pET101/D-TOPO with native TGA stop (degenerate reverse primer), no tag; E. coli BL21 Star (DE3); treated by reductive lysine methylation before crystallisation (no methylation seen in density); residues 1-6 (A) and 1-7 (B) disordered; dimer in crystal
T1 sequence (A0A0J9X243 1-379): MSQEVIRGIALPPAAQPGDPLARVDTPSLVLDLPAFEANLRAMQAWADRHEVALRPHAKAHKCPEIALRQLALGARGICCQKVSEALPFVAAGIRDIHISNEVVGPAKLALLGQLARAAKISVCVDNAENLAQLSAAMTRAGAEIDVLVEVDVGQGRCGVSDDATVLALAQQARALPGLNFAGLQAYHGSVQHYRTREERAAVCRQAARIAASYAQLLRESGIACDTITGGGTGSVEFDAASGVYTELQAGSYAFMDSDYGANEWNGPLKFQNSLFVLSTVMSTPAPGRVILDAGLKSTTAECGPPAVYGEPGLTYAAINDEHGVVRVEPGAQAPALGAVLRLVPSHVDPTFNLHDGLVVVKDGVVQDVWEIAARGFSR

| stoichiometry N [1] | Molecule | X-ray crystallography, 1.5 Å [2] |
| --- | --- | --- |
| 2 | D-threonine aldolase from Alcaligenes xylosoxidans (enzyme) | – |
| – | Cc1ncc(COP(=O)(O)O)c(C=O)c1O [PLP, pyridoxal phosphate] | modeled by a molecule of pyridoxal phosphate (PLP) in two alternate conformations: covalently linked to Lys59 |
